The source of these data is patent publication US20040054158A1.

Test [1] deals with GL50 (ICOS-ligand) on mouse cells (WEHI 231, undifferentiated CCE ES cells, Balb/C and RAG1 -/- splenocytes) (mouse) (UniProt Q9JHJ8). The test is described as follows: flow cytometry, titered staining of WEHI 231 cells.
For test [2] the target is unchanged. Nature of the test: flow cytometry, RAG1-/- splenocytes, anti-CD11B stained subset. (In general: In flow cytometry, cells or beads pass a laser one at a time.)
Test [3] shares this target. Nature of the test: flow cytometry, RAG1-/- splenocytes, anti-CD24 stained subset.
For test [4] the target is unchanged. Nature of the test: flow cytometry, Balb/C splenocytes, anti-CD11B stained subset.
The target is the same in test [5]. Nature of the test: flow cytometry, Balb/C splenocytes, anti-CD24 stained subset.
Test [6] shares this target. Nature of the test: flow cytometry, Balb/C splenocytes, anti-pan NK stained subset.
Test [7] shares this target. Nature of the test: flow cytometry, Balb/C splenocytes, anti CD40 stained subset.
For test [8] the target is unchanged. The test is described as follows: flow cytometry, Balb/C splenocytes, anti CD69 stained subset.
Test [9] has the same target. The test is described as follows: flow cytometry, RAG1-/- splenocytes, anti-CD4 stained subset.
Test [10] has the same target. The test is described as follows: flow cytometry, RAG1-/- splenocytes, anti class II stained subset.
Test [11] has the same target. The test is described as follows: flow cytometry, RAG1-/- splenocytes, anti-pan NK stained subset.
The target is the same in test [12]. Nature of the test: flow cytometry, Balb/C splenocytes, anti class II stained subset.
For test [13] the target is unchanged. The test is described as follows: flow cytometry, Balb/C splenocytes, anti-CD19 stained subset.
Test [14] has the same target. The test is described as follows: flow cytometry, RAG1-/- splenocytes, anti-CD11C stained subset.
Test [15] shares this target. Nature of the test: flow cytometry, Balb/C splenocytes, anti-CD11C stained subset.
Test [16] has the same target. Nature of the test: flow cytometry, indirect staining of undifferentiated CCE ES cells.
Test [17] shares this target. The test is described as follows: flow cytometry, Balb/C splenocytes, anti-CD4 stained subset.
Test [18] has the same target. The test is described as follows: flow cytometry, Balb/C splenocytes, anti-CD3 stained subset.
The target is the same in test [19]. Nature of the test: flow cytometry, Balb/C splenocytes, anti-CD8a stained subset.
Test [20] has the same target. Nature of the test: flow cytometry, RAG1-/- splenocytes, anti CD69 stained subset.
For test [21] the target is unchanged. The test is described as follows: flow cytometry, RAG1-/- splenocytes, anti-CD45R/B220 stained subset.
Test [22] shares this target. Nature of the test: flow cytometry, Balb/C splenocytes, anti-CD45R/B220 stained subset.
Test [23] shares this target. Nature of the test: flow cytometry, RAG1-/- splenocytes, CD11b+ subset (text value; the table prints 31%).

B1: mICOS-mIgG2am (Fc fusion)
chain: EINGSADHRMFSFHNGGVQISCKYPETVQQLKMRLFREREVLCELTKTKGSGNAVSIKNPMLCLYHLSNNSVSFFLNNPDSSQGSYYFCSLSIFDPPPFQERNLSGGYLHIYESQLCCQLKLEPRGPTIKPCPPCKCPAPNLEGGPSVFIFPPKIKDVLMISLSPIVTCVVVDVSEDDPDVQISWFVNNVEVHTAQTQTHREDYNSTLRVVSALPIQHQDWMSGKAFACAVNNKDLPAPIERTISKPKGSVRAPQVYVLPPPEEEMTKKQVTLTCMVTDFMPEDIYVEWTNNGKTELNYKNTEPVLDSDGSYFMYSKLRVEKKNWVERNSYSCSVVHEGLHNHHTTKSFSRTPGK
For the molecule B1, the concentration from which staining was minimally detectable in test [1] is 1 µg/mL. Further, the % ICOS-Ig positive in [2] worked out at 31%; in test [3], 28%; in test [4], 26%; in test [5], 94%; in [6], 20%; in test [7] it was 97%. In addition, the % ICOS-Ig positive in test [8] was found to be 25%; in test [9] it was 45%; in [10], 3%; in test [11] it was 3%; in test [12], 95%; in test [13], 97%. Also, the % ICOS-Ig positive was 55% in test [14]; 43% in test [15]; 8% in test [17]; 10% in test [18]; 10% in [19]; 5% in test [20]. The values for the % ICOS-Ig positive in [21], in test [22] and in test [23] were 5%, 97% and 35%, respectively. In addition, in test [16], the fluorescence shift over background stood at 0.5 log.
